Data published in patent publication US20220119825A1, “SCALABLE PEPTIDE-GPCR INT[…] SYSTEMS” (THE TRUSTEES OF COLUMBIA UNIVERSITY IN THE CITY OF NEW YORK, priority 2019, published 2022).

Legend:
Assay in all cases: cell-based or functional assay
[1] = biological target: T1, Cg.Ste2, Ste2-like mating GPCR of Candida glabrata (Candida glabrata)
T1 chain: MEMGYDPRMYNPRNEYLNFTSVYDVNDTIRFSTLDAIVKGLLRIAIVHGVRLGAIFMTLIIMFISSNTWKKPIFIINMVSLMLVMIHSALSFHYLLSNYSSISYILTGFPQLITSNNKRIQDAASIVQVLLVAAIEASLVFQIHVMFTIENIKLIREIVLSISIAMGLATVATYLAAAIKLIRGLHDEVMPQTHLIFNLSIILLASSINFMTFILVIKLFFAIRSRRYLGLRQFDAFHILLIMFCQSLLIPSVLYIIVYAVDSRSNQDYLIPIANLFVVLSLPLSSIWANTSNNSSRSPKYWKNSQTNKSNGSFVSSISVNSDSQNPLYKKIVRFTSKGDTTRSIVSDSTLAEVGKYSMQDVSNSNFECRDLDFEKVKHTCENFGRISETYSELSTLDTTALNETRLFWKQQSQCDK

[2] = biological target: T2, Zb.Ste2, Ste2-like mating GPCR of Zygosaccharomyces bailii (Zygosaccharomyces bailii)
T2 chain: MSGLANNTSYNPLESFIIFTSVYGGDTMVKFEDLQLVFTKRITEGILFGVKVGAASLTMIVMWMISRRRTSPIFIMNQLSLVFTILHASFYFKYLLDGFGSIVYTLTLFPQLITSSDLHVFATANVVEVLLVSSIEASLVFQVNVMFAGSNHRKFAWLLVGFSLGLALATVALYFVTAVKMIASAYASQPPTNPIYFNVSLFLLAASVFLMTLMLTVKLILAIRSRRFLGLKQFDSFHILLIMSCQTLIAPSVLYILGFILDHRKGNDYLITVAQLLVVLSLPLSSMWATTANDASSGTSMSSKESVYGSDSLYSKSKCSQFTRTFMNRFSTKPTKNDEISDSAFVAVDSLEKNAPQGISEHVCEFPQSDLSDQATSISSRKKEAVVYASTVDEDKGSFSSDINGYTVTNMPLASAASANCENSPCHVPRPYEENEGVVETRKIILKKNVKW

[3] = biological target: T3, Cn.Ste2, Ste2-like mating GPCR of Candida tenuis (Candida tenuis)
T3 chain: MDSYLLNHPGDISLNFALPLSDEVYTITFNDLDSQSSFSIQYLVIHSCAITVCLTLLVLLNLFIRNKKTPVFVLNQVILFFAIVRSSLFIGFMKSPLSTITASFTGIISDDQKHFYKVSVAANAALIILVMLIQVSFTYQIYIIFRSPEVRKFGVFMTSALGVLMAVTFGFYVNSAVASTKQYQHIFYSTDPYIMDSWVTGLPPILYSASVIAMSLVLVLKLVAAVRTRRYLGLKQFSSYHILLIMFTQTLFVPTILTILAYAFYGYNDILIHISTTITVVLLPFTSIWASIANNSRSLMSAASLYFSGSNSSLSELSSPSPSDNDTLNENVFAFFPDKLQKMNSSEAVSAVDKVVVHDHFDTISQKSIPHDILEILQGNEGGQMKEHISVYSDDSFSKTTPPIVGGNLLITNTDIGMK

[4] = biological target: T4, Vp2.Ste2, Ste2-like mating GPCR of Vanderwaltozyma polyspora2 (Vanderwaltozyma polyspora)
T4 chain: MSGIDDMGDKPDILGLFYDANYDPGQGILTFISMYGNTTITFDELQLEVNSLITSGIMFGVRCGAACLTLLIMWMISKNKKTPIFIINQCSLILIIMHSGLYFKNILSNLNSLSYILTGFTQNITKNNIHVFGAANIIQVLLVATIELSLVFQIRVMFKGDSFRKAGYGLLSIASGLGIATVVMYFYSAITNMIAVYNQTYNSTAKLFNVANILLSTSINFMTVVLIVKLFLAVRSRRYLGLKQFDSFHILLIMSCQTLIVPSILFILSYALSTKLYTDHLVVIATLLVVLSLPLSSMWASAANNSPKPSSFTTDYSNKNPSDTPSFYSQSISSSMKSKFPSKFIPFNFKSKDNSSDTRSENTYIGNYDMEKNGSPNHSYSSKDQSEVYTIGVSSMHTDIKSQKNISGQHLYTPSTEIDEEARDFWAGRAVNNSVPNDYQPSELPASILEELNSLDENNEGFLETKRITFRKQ

[5] = biological target: T5, Ca.Ste2, Ste2-like mating GPCR of Candida albicans (Candida albicans)
T5 chain: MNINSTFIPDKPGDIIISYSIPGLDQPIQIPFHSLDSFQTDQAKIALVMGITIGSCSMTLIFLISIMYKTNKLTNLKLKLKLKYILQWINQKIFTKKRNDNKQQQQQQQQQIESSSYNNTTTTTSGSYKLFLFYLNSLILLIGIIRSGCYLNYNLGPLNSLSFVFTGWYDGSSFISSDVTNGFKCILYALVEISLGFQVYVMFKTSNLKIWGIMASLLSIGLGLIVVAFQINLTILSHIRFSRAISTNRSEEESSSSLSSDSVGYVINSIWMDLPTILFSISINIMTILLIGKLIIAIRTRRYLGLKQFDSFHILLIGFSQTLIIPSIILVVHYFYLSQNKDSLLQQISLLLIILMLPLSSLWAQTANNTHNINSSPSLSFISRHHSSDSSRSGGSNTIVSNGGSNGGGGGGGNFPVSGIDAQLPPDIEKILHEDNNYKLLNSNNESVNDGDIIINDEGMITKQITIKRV

[6] = biological target: T6, Zr.Ste2, Ste2-like mating GPCR of Zygosaccharomyces rouxii (Zygosaccharomyces rouxii)
T6 chain: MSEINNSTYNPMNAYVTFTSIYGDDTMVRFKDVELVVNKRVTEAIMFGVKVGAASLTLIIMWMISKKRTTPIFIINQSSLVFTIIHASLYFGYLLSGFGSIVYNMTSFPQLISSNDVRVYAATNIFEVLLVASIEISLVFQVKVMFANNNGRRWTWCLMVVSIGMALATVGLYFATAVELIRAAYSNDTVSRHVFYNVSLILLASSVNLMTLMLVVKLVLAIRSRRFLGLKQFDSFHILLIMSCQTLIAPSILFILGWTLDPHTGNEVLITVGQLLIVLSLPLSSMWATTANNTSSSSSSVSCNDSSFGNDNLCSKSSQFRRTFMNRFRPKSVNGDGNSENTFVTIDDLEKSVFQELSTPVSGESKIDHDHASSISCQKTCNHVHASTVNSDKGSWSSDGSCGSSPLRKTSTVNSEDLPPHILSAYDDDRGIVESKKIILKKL

[7] = biological target: T7, Cgu.Ste2, Ste2-like mating GPCR of Candida (Pichia) guilliermondii (Candida (Pichia) guilliermondii)
T7 chain: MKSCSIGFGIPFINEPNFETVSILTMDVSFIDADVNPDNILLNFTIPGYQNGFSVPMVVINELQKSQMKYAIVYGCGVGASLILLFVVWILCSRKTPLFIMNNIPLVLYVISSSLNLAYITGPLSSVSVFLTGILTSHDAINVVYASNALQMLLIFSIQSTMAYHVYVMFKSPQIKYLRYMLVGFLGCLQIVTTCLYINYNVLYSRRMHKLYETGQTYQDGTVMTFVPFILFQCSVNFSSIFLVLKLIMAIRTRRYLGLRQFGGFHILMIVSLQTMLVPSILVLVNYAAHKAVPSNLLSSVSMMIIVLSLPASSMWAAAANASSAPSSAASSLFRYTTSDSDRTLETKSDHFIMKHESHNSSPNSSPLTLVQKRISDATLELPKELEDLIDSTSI

[8] = biological target: T8, Cp.Ste2, Ste2-like mating GPCR of Candida parapsilosis (Candida parapsilosis)
T8 chain: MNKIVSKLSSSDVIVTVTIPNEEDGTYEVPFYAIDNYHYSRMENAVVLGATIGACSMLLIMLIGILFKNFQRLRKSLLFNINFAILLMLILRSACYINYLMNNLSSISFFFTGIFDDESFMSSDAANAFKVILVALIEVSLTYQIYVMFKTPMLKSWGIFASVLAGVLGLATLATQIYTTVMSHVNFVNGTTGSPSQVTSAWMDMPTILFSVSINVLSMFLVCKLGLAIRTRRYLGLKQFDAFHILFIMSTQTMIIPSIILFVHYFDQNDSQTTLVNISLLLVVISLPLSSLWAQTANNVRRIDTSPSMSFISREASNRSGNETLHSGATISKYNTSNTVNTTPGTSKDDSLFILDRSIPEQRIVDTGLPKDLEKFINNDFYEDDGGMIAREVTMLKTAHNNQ

[9] = biological target: T9, Cau.Ste2, Ste2-like mating GPCR of Candida auris (Candida auris)
T9 chain: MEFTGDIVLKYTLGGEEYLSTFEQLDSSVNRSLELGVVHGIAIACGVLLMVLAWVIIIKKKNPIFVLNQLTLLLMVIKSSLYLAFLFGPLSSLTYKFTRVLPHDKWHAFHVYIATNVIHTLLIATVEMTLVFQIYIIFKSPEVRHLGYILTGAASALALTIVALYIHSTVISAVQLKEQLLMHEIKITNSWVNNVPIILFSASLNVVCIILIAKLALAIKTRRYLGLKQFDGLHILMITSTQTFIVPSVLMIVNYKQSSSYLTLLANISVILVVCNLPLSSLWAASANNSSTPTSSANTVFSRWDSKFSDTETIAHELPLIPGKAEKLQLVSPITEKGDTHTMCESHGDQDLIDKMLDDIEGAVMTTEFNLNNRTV

[10] = biological target: T10, Cl.Ste2, Ste2-like mating GPCR of Candida (Clavispora) lusitaniae (Candida (Clavispora) lusitaniae)
T10 chain: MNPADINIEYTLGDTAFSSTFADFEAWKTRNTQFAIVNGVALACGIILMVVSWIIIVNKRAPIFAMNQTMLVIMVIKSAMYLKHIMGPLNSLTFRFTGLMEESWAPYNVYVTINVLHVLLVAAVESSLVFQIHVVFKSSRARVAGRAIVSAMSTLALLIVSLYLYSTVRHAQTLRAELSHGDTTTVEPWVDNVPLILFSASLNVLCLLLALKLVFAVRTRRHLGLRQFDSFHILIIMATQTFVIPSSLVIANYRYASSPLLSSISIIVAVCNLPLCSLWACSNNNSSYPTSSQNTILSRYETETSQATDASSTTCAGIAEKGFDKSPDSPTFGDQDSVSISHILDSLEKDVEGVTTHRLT

Binder: WHWVRLRKGQGLF [Cg peptide ligand #1 WHWVRLRKGQGLF]
- Bttm (FUS1p-RFP reporter) [1]: 30.5 fluorescence/A600 (not printed)
- EC50 (FUS1p-RFP reporter) [1]: -5.9 log10 M (not printed)
- Fold Change (FUS1p-RFP reporter) [1]: 7 fold
- Span (FUS1p-RFP reporter) [1]: 183 fluorescence/A600 (not printed)
- Top (FUS1p-RFP reporter) [1]: 214 fluorescence/A600 (not printed)

Binder: HLVRLSPGAAMF [Zb peptide ligand #1 HLVRLSPGAAMF]
- Bttm (FUS1p-RFP reporter) [2]: 39.1 fluorescence/A600 (not printed)
- EC50 (FUS1p-RFP reporter) [2]: -5.8 log10 M (not printed)
- Fold Change (FUS1p-RFP reporter) [2]: 7.5 fold
- Span (FUS1p-RFP reporter) [2]: 253 fluorescence/A600 (not printed)
- Top (FUS1p-RFP reporter) [2]: 292 fluorescence/A600 (not printed)

Binder: FSWNYRLKWQPIS [Cn peptide ligand #1 FSWNYRLKWQPIS]
- Bttm (FUS1p-RFP reporter) [3]: 29.7 fluorescence/A600 (not printed)
- EC50 (FUS1p-RFP reporter) [3]: -7.4 log10 M (not printed)
- Fold Change (FUS1p-RFP reporter) [3]: 5.1 fold
- Span (FUS1p-RFP reporter) [3]: 122 fluorescence/A600 (not printed)
- Top (FUS1p-RFP reporter) [3]: 152 fluorescence/A600 (not printed)

Binder: WHWLRLRYGEPIY [Vp2 peptide ligand #1 WHWLRLRYGEPIY]
- Bttm (FUS1p-RFP reporter) [4]: 28 fluorescence/A600 (not printed)
- EC50 (FUS1p-RFP reporter) [4]: -7.7 log10 M (not printed)
- Fold Change (FUS1p-RFP reporter) [4]: 7.7 fold
- Span (FUS1p-RFP reporter) [4]: 187 fluorescence/A600 (not printed)
- Top (FUS1p-RFP reporter) [4]: 215 fluorescence/A600 (not printed)

Binder: GFRLTNFGYFEPG [Ca peptide ligand #1 GFRLTNFGYFEPG]
- Bttm (FUS1p-RFP reporter) [5]: 38.9 fluorescence/A600 (not printed)
- EC50 (FUS1p-RFP reporter) [5]: -7.7 log10 M (not printed)
- Fold Change (FUS1p-RFP reporter) [5]: 7 fold
- Span (FUS1p-RFP reporter) [5]: 233 fluorescence/A600 (not printed)
- Top (FUS1p-RFP reporter) [5]: 272 fluorescence/A600 (not printed)

Binder: HFIELDPGQPMF [Zr peptide ligand #1 (Table 3: …)]
- Bttm (FUS1p-RFP reporter) [6]: 57.2 fluorescence/A600 (not printed)
- EC50 (FUS1p-RFP reporter) [6]: -7.4 log10 M (not printed)
- Fold Change (FUS1p-RFP reporter) [6]: 1.9 fold
- Span (FUS1p-RFP reporter) [6]: 52.7 fluorescence/A600 (not printed)
- Top (FUS1p-RFP reporter) [6]: 110 fluorescence/A600 (not printed)

Binder: KKNSRFLTYWFFQPIM [Cgu peptide ligand #1 KKNSRFLTYWFFQPIM]
- Bttm (FUS1p-RFP reporter) [7]: 41.2 fluorescence/A600 (not printed)
- EC50 (FUS1p-RFP reporter) [7]: -7.4 log10 M (not printed)
- Fold Change (FUS1p-RFP reporter) [7]: 5.1 fold
- Span (FUS1p-RFP reporter) [7]: 170 fluorescence/A600 (not printed)
- Top (FUS1p-RFP reporter) [7]: 212 fluorescence/A600 (not printed)

Binder: KPHWTTYGYYEPQ [Cp peptide ligand #1 KPHWTTYGYYEPQ]
- Bttm (FUS1p-RFP reporter) [8]: 36.2 fluorescence/A600 (not printed)
- EC50 (FUS1p-RFP reporter) [8]: -8.5 log10 M (not printed)
- Fold Change (FUS1p-RFP reporter) [8]: 7 fold
- Span (FUS1p-RFP reporter) [8]: 218 fluorescence/A600 (not printed)
- Top (FUS1p-RFP reporter) [8]: 254 fluorescence/A600 (not printed)

Binder: KWGWLRFFPGEPFV [Cau peptide ligand #1 KWGWLRFFPGEPFV]
- Bttm (FUS1p-RFP reporter) [9]: 50.6 fluorescence/A600 (not printed)
- EC50 (FUS1p-RFP reporter) [9]: -8.1 log10 M (not printed)
- Fold Change (FUS1p-RFP reporter) [9]: 6.7 fold
- Span (FUS1p-RFP reporter) [9]: 286 fluorescence/A600 (not printed)
- Top (FUS1p-RFP reporter) [9]: 337 fluorescence/A600 (not printed)

Binder: KWKWIKFRNTDVIG [Cl peptide ligand #1 KWKWIKFRNTDVIG]
- Bttm (FUS1p-RFP reporter) [10]: 39.8 fluorescence/A600 (not printed)
- EC50 (FUS1p-RFP reporter) [10]: -7.5 log10 M (not printed)
- Fold Change (FUS1p-RFP reporter) [10]: 1.4 fold
- Span (FUS1p-RFP reporter) [10]: 186 fluorescence/A600 (not printed)
- Top (FUS1p-RFP reporter) [10]: 226 fluorescence/A600 (not printed)
